Measured values published in a protein production outcome set (Wang et al. 2014).

Assay: label from the status in PepcDB records
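Further: failed if final PepcDB status was selected cloned or expressed and not failed if soluble or beyond.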

MSLSIVSYYGSQQSKCGYCAGANCSLSHGMHAYQLDCRDYQDLIDRGWRRCGYYCYKLRNQETCCPCYTIKCNGLEFKLSKSNKRILRRINRFLRDGKRESKPEAGDGDGEADADYAIVAPEVTASEPQPQLPDKSPPVINVEQVASLATAQRKPTKQATAAAVEAPTLGSNKSSLLSSSAAAPISNKPCKKAKQMRLDRRLAKLGDSASYSTKSLTQEKTLRDFLNTDSETNKHRLKLRLIHVYDDEFRRTLPQSFALYKKYQISIHNDPPKDQDAYKEHLQATPLQNEKPWDGPEMGYGSFHQQYWLDDKLIAVGVIDILPGCVSSVYFFYDPDYSFLSLGTYGSLREIELVQSLAEKVPSLKYYYMGFYIHSCPKMRYKGKLSPSYLLCPETYEWLPLTDVIRAKLDEHKYQRLNEDPAARDVNEFLMEHLDEVKLLLGGRTRTDYKHFRQLRGTVSDDDIIIEYSKLVGKECARRMLYVK
protein production: failed

MRYAVVLYPCSSFHHESVRPSRFPAPRRHPLLHRLPLAVARRLAGPGTADHFRERAGRGGAASRQRRRVPRRGRRRAAVGPQGGRRLSRAENPQAAAARPHRAGQGAGAQRPSLSAAMNAPQRKIIHVDCDCFYAAIEMRDDPSLRDVPLAVGGRPETRGVVATCNYIARRYGVHSAMSSARALRLCPELLIVPPDMARYRLASQQIMAIYQRYTEVIEPLSLDEAYLDVTGQPHERGSATLMAEAIRRQIRDEVGITASAGIAPNKFLAKVASDWNKPDGQYLIRPRDIDAFVAVLPVEKIHGVGRVTAERLHRLGIRSCGDLRRWSPADLFRHFGSFGERLLALAHGRDERPVSTDRSRKTISVEETYAQDLPDLASCLSKLPELVDRLQARLARSGSPAFKGLSVKLKFDDFSQTTVEQPGYALSMAAFGQLLRAGHARGARPARLLGVGVKLADDFDLPRQLRLFGRDGRPLPDSAPPAEAPPGGPEADSAA
protein production: failed

MSKGYGVFGHVPDNADDDDLLPYEDDDSGVSWGHALRRRNPWKRGGDEGADYDDDRYGADDTDDTDDTNEDRSLFAGKSSGIGGISGEADGMLGGAGAAGSRAVTFGGTDSLSAADAVMPYRFRQGRSVWFEDEDEGHFAGAAKRAEAHAVPILALRNDVESSSSNAVLARARSIARKAATMVINPVYSENHRTGYAELDGILRGTTSPSSKYRTSVQFDLDTGEAVGGKCSCPAYGRGYGMCKHMIALAFIFCDDPQRFEGYRAGAVRPSRTLIDYMEHVDRQDAQAKARRRNALMRRFDTAKGRNGAGGRHTNSGYGSRAGTRGGGYQGDSETVGLGQVQLVPILSFIDGVWSVEFKIGSTSNGSSYVLKSIPQFVLTMANGDYTDYGQKLAFTHTPDMFDDDSRPLLGFLDDAMAVRRAAEQQDRYYGHIAIDRHLTLSAPEVARLLSVREGRGVQLVLNTWFSGQPASVPVDGGEPDFLMRIARRDFNTYGPDAGYLLTGVPAVETVIDGGKNVWLLLASANPAGVVSAMMAGSQRKSAAGCRFVRCPKRLIPLRGLLGDMFEPDGEGQVIAGDDIALFARTLLPQLVGAGLLEASEIPRELAELSPTECSLQFYLDRDEHGVQCEVKARYGDAIVPLLPDGPTVHARDERSIPLSRGVIGRDFDAEHLAIDVVREFFTMPDQRKRVAAATHQTVNGFRTPAARKTAKQFVPDAATIDRDDTTQIVRLFDEGLPALKEVGEVFTTPAFDRLIAPKPPSVKVGLSIKGNLVEISPLADEVPPDEVGALLSSYRRRQRFHQLKDGTLVKLSGANLSTLDRLASDLDLSEQQLNSGLIELPGGRAFLLDGELPDDGSDVVKDASFTEYIDDLKIIDPKSYEVPDSLKHILRPYQVEGFQWLNTLCDKGFGGILADEMGLGKSVQLIALLLSRYHNESSGMPTAQGMDAGNAGNSESAVTGHITFDSEDGGSHPSLIVCPASLVYNWGAEFAKFAPSFNAVVVAGTKAERRTAIGRAFRADEPTVLITSYDLLRRDVDDYTANEQRFNVMALDEAQYIKNHTTKIAKAVKAVAADHRFALTGTPIENRLSELWSIFDFLMPGLLGSYKRFHERYELPISNARAADGSTAEGRAAAQVNPEAARVSRQLQSLVGVFIKRRLKSQVLTDLPDKLETTLTVQLAGEQRKLYAAHEQRLRMQLEHSEEADFNTSKIRILAELTKLRQICCDPRLLYADAKDQSAKLAAITELVETCVNEGKKALIFSQFTSFLDLIAERFDAQGLRYYTITGSTPKKKRLELVDQFNADDTPAFLISLKAGNTGLNLTGASVVIHADPWWNAAAQDQATDRAHRIGQTEDVNVYQVVAKDTIEERILELQHTKSELARQFTDASLLADEAGTGASALTEAPASIATLTKDDLLNLLG
protein production: failed

MGSSHHHHHHSSGENLYFQGHMKTADLCDQFLDELQVCELPFQSYGGKRMFSGPIATVDVFEDNVLVREALETVPPGTVLVVDGKGSRRVALLGDRLAQIACERGLAGVIIHGCIRDSAEIGAMPIGVMAIGTCPVKSKKEGKGARDVVLEFGGVRWEPGAYVYADADGVVVANKDLLAKNG
protein production: not failed

MSGIEAKNLWHRLNNLALVRFLLLVAAGWAIVQLLAYFETVIIIFTFAAILAFLLSYPVQWLRRFLPHSVAVVVVFLISIVILGGLLITVGVALLSQGQQLIDSISAFLTSLLPFLERIERLLSNRNLQIDLSVIQEQLRTQAVSTLVTSLAIVQQFLTNFVTFILIAVVAFFMLLDGEKLWNFILKIVPQKRRIRFTNIMRRSFLGFFRGQLLLCLFLTSSTFIIFLLLQVPFALILSVIVGILDIIPGIGATLGVGTITLIVLSQDVWLALKVLAACVVLQQIQDNLISPRIMQGSLNLNPVVVFFALLVGARVAGLLGVFISIPITGVIVSLFEIDEMKSEV
protein production: failed

MARKRLIIEMGMGIDQHGQEPTIAASRAVRNAIAHNALPGVWEVAGLSHPNEMIIEVQVAVPYPEQVREEEVLAVLPFGRKTLTVESGGMIVQGRAIPELNDKNDEMLIAIAAVTVLIENE
protein production: not failed

MAAMPKPAAFWNDRFANEEYVYGEAPNRFVASAARTWLPEAGEVLLLGAGEGRNAVHLAREGHTVTAVDYAVEGLRKTERLATEAGVEVEAIQADVREWKPARAWDAVVVTFLHLPADERPGLYRLVQRCLRPGGRLVAEWFRPLEHHHHHH
protein production: failed

MTDARPHLRLRLARPEDMPALSALMDRAIGELLQDFLPPEGVKASYEIMGLDTQLIADGTYFVVEDGAAIAGCGGWSRRATLFGGDHSAGRDAALLDPKTDAARVRAMYTHPDHTRKGVGRIILDACEAAARAEGFSSVEMAATMGGVPLYRACGYHDIEPFEAVTSTGYRVPLIRMGKAL
protein production: failed

MREHFVNEFMAVLSNKLTEDALSIVYQSLTLFVSNYEISERNTEVVPYTGYLPECYETYFVTRKIEGMSMKSLELYNLVLKDFFFKLNKEICKISTNDIRVYLYKNQQERNLSNSTLDTKRTIIHAFFEWAANEGYIGSNPCRNIKPIKYERPKRKPLTGIELEKVRNACDNLKDKALLELFYSTGCRVTEMERLDISDIDFQTKEVLLFGKGDKHRISYLNAKAEIAIRNYLDSRNDNEEALFVSDRKPYGRLKKPAIEKRIRVLGEKSGIGRRLYPHLIRHTTATDGLDRGMPVEEVQQILGHVNIATTMIYAEVSRANVKNNHRKCIV
protein production: failed

MEIKPVSPEIVSDKLTKVILVFYKTISEIIYPLAILGYCISVILIITGSCFHSRTVMKMGIVNFCVITLVLISYFFMPSFIGILKSIETILR
protein production: failed

MTTRILTGITPTGTPHLGNYAGAIRPAILASRRSDVDSFYFLADYHALIKCDDPARIQRSRLEIAATWLAGGLDVERATFYRQSDIPEIPELTWLLTCVSAKGLLNRAHAYKAAVDRNVEAGEDPDAGVTMGLYSYPVLMAADILMFNAHKIPVGRDQVQHVEMARDIGQRFNHLFGNGREFFVLPEAVIEENVATLPGLDGRKMSKSYDNTIPLFSPSRQLKDAIARIVTDSRAPGEPKDPDSSHLFLLYSAFASAEQVAAFRQELLEGLAWGEAKQRLFQLLDNELGEARERYQALIAKPDDIEDILLAGAAKARRIATPFIAELREAVGLRSLREPLKSAESGKKKAAKAARLVSFRDDDGSFRFRLLDAAGEQLLLSRAFADGKAAGAVSKRLLAGETADLRAEGNAFGLWLDGEAVAQSPAFADAAARDAAIERTREALAPQ
protein production: failed

MARVRFENKRVNMSKLSQFGFEPNQNGQYQFRILIMQGQFEMIIELNTDGSLNTTLTDTTTSEVYVLHLTSQAHGQFVGQVAQAYQDVLYNIEQHCYDNDVFQSTPERKLIAQVKAAYGDDLEFLWPKFPQNAVWRRSDTHKWYGALLTVTSDKLALPGATHVVTVLDLRARPEDLSMLIDGQHYLPGYHMNKKHWYSILLDDVVPLATIMDDVKVSYMLAKLEHHHHHH
protein production: not failed

MSSEHIDEVSGISTTGHEWDGIRELNNPLPRWWVITFYITVAWAVAYTIAYPAWPMLSSATKGVLGYSSRNAVKIELAAAEAAKGKYVAAIQQKTVSEIAADDALREFAVAAGGATFKVNCVQCHGSGAQGSKGFPNLNDDDWLWGGTTEQIQQTIAHGIRFASDPDTRQSEMPPFGDIITPEQIAQVGAYVASLSGKVQDASLIEPGAKVFGENCVACHGDNAKGNKELGAPNLTDAIWLYAPGETAIAVQVRAPKHGVMPAWIGRLGETKVKELAVYVHSLGGGE
protein production: failed

RFEGGDHDLIPNNDAQNAAVNRALNAEDFALVHGPPGTGKTYTIATLVQAFVARGDRVLVSAFTNRAVDNALDALRQQGHEDIVRVGTETGVRADMQDLRLDRSGDPGERAAALRSAPVVAATTATCGSRILRELEFDVVLVDEASQLTEPDTLAAINRGARFVLVGDHEQ
protein production: failed

MDFPTISRSPSGPPAMDLEGPRDILVPSEDLTPDSQWDPMPGGPGSLSRMELDESSLQELVQQFEALPGDLVGPSPGGAPCPLHIATGHGLASQEIADAHGLLSAEAGRDDLLGLLHCEECPPSQTGPEEPLEPAPRLLQPPEDPDEDSDSPEWVEGASAEQEGSRSSSSSPEPWLETVPLVTPEEPPAGAQSPETLASYPAPQEVPGPCDHEDLLDGVIFGARYLGSTQLVSERNPPTSTRMAQAREAMDRVKAPDGETQPMTEVDLFVSTKRIKVLTADSQEAMMDHALHTISYTADIGCVLVLMARRRLARRPAPQDHGRRLYKMLCHVFYAEDAQLIAQAIGQAFAAAYSQFLRESGIDPSQVGVHPSPGACHLHNGDLDHFSNSDNCREVHLEKRRGEGLGVALVESGWGSLLPTAVIANLLHGGPAERSGALSIGDRLTAINGTSLVGLPLAACQAAVRETKSQTSVTLSIVHCPPVTTAIIHRPHAREQLGFCVEDGIICSLLRGGIAERGGIRVGHRIIEINGQSVVATPHARIIELLTEAYGEVHIKTMPAATYRLLTGQEQPVYL
protein production: not failed

MVVKVINKKQDKFYFKLGMFILIFLILGVSLLNIIGINVDKTYENGNGMYAHIVDYSLPWVKVANNKNTSENTYSIKNIILSAAGLDINKPENVISKEVSFLGEALPKSIKSECPNESFTLDDKDVVKSTSGSVQNEPLKNINENIYDPKLKKALDKSKPEILIYHSHTTEAYKPYPADSLNSTQNVCAVGDELVKELGEKYGIYAINDKTVHNVVDYNKSYTRSGETLDKYLKQYGDFKMIIDMHRDSDVPKSKVTARINGEDVAKFMFVMTRKNPHFDKNMALVNGLVSICNKDFPGIFNGIYYYDYGINYYNQQKSNNAFLLEVGSDINTIDEAKGTSKYLARIIAEYLNGKK
protein production: failed

MRKVLLTIRKIAMTQPTSRKADLVYQLNDRPPLPQTLFAALQHLLAMFVAVITPSLIICQSLGVPADQTNTIISMSLFASGLSSFIQIRTFGPIGSGLLSIQGTSFNFLGPIIGAGLALKAGGADIETMMAAIFGTILVASSAEILLSRVLQFAQRIITPLVSGIVVTLIGLTLVQVGLISMGGGYAAMADGSFGSLDKLALAGTVLAIIVLLNRAHNPYVRVASIVIAMLVGYVMAYLMGMVNTDNLAETQFIALPIPMQYGLGFDWSLFIPLVLIFLITALEAIGDITATSEVSGEPVKGPVYMKRIKGGVLADGLNSALAAVFNSFPNSTFSQNNGVILLTGVASRYVGYFIAGMLVLLGLFPGVASFVQLIPEPVLGGATIVMFGTIAAAGVRIISRVDLDRRAILIMALSFSMGLGIAQKPEILQFMPEFIKNLFSSGVAAGGITAIVLNLLLPEVRRDEDAASVAKTEAAQESN
protein production: failed

MDPAVFEEWMMIILVTVLIGFMGFIVWDLAKKSKAGKFGTLILFFVLGLGVLAFIIKSVVVGFLEGV
protein production: failed
